Measured values reported in article PMC6200312, “A Single Tim Translocase in the Mitosomes of Giardia intestinalis Illustrates Convergence of Protein Import Machines in Anaerobic Eukaryotes” (Genome Biology and Evolution, 2018).

B1: Giardia intestinalis Tim17 protein (GiTim17), in vivo in Giardia (natural protein, UniProt D3KGG5 1-180, looked up)
chain: MLRLWQEYVQEDDVLACLSVLDEDCQRAVQVIERLDVEGGTPEMQTHERVCTSFSHGLIRTALRRFPLALSKNLGRVQSMLNAFNHALQETSTESFSHAISSSCGSLVSSLCNNPSAGAAMGALPNLRKSPGAALSALLMGPTIAHLVGSVYSLGLNAYHICKLELRDLRLHRAEMDKKA
notes: Tim17 family protein of Giardia intestinalis, GL50803_10452, a protein of 180 amino acids, predicted mass 19.4 kDa; also called GL50803_10452

Experiments:
[1] = molecular target: GiTim17 synthesized in vitro (PURExpress) in lecithin liposomes (Giardia intestinalis); test: native gel or EMSA; 35S-labelled GiTim17 translated in vitro with lecithin liposomes; pellet washed with 2 M urea in 50 mM sodium phosphate pH 8; Blue Native PAGE with 2% digitonin, 4-16% Bis-Tris gel
[2] = molecular target: the molecule itself; test: non-reducing SDS-PAGE; GiTim17 in vivo in Giardia; ~40 kDa complex on nonreducing SDS-PAGE, no reducing agent

Molecule | stoichiometry N [1] | stoichiometry N [2]
GiTim17 synthesized in vitro (PURExpress) in lecithin liposomes (natural protein) | 2 | –
B1 | – | ~2
